Data on three substances can be found in PMC13326754.

Bounds are passed on as bounds.

Data set [1] concerns U2AF1beta (Fritillaria borealis). The data set is described as follows: EMSA. The note with it: 330 nM; single U2AF1; never exceeded 5% bound; EMSA: 20 mM Hepes, 0.1 M NaCl, 5% glycerol, 0.5% Tween-20, pH 7.8, 50 ng/ul BSA, 0.5 mM TCEP, 0.5 mM EDTA; 1 h on ice; 6% PAGE 0.5x TBE at 4 C.
Data set [2] has as its system U2AF1alpha (Fritillaria borealis). The data set is described as follows: EMSA. Conditions: 330 nM; single U2AF1; never exceeded 5% bound; EMSA: 20 mM Hepes, 0.1 M NaCl, 5% glycerol, 0.5% Tween-20, pH 7.8, 50 ng/ul BSA, 0.5 mM TCEP, 0.5 mM EDTA; 1 h on ice; 6% PAGE 0.5x TBE at 4 C. (In general: Mobility shift assays separate free from complexed probe on a gel.)
Data set [3] has as its target GST-U2AF1α (Fritillaria borealis U2AF small subunit, paralog α) (Fritillaria borealis). The data set is described as follows: pull-down; GST-U2AF1 baits co-expressed with U2AF2-V5 in HEK293T cells; glutathione beads; washes under increasing salt concentration; western blot for V5 and GST.

With “GGGCUGUCCUCUUUUUUUUUUCAGGCGUCU [ORN.PyU]”, the binding signal in data set [1] and in data set [2] was < 5 % bound in each case. For GGGUCGCUUCUCCCCCCCCCUAGGCGUCU [ORN.PyC], the binding signal in data set [1] and in data set [2] was < 5 % bound each time. “U2AF2α-V5 (Fritillaria borealis U2AF large subunit, paralog α, V5/6xHis tagged) (natural protein)”: the excess protein bound on glutathione beads relative to U2AF2β in data set [3] lay in the range of 10 to 35%.
